No end group written: not given here.
Assays:
[1] = biological target: recombinant soluble CD4 (number of domains not stated), P01730; experiment: SPR; biotinylated pV2α (235 RU) on neutravidin-coated CM3 chip, recombinant soluble CD4 in solution; koff-KD distribution model
[2] = biological target: recombinant soluble gp120 (isolate YU2) (HIV-1 isolate YU2), P35961; experiment: SPR; biotinylated pV2α (235 RU) on neutravidin-coated CM3 chip, gp120 YU2 in solution at 2, 4, 8 and 16 nM; koff-KD distribution model
[3] = biological target: HIV-1 BaL virions (virion-associated envelope gp120, stock grown in primary CD4+ T cells) (HIV-1 BaL); experiment: cell-based or functional assay

Binder	Kd [1] [mM]	koff [1] [s⁻¹]	Kd [2] [nM]	koff [2] [s⁻¹]	IC50 of inhibition of acute infection of primary human CD4+ T cells by HIV-1 BaL [3] [µM]
KVQKEYALFYELDIVPID (not fully specified) [biotinylated peptide pV2α (captured on neutravidin chip or biotin-captured in ELISA)]	4	0.013	0.9	6.4e-05	
KVQKEYALFYELDIVPID (modifications not checked) [peptide pV2α-Tys (tyrosine-sulfated variant of peptide pV2α)]					15
